Paper PMC5389655

Columns and labels:
[1] = molecular target: Escherichia coli core RNA polymerase, assembled into synthetic transcription elongation complexes (TECs) (E. coli) (UniProt P0A8V2); assay: […]) at 10 nM, […]
[2] = molecular target: Escherichia coli core RNA polymerase, assembled into synthetic transcription elongation complexes (TECs) (E. coli) (UniProt P0A8V2); assay: native gel or EMSA
[3] = molecular target: Escherichia coli core RNA polymerase, assembled into synthetic transcription elongation complexes (TECs) (E. coli) (UniProt P0A8V2)
[4] = molecular target: Escherichia coli core RNA polymerase, assembled into synthetic transcription elongation complexes (TECs) (E. coli) (UniProt P0A8V2); assay: native gel or EMSA; remark: listed apart in the source

Chain of UniProt P0A8V2 (P0A8V2 whole entry, looked up, one chain of several): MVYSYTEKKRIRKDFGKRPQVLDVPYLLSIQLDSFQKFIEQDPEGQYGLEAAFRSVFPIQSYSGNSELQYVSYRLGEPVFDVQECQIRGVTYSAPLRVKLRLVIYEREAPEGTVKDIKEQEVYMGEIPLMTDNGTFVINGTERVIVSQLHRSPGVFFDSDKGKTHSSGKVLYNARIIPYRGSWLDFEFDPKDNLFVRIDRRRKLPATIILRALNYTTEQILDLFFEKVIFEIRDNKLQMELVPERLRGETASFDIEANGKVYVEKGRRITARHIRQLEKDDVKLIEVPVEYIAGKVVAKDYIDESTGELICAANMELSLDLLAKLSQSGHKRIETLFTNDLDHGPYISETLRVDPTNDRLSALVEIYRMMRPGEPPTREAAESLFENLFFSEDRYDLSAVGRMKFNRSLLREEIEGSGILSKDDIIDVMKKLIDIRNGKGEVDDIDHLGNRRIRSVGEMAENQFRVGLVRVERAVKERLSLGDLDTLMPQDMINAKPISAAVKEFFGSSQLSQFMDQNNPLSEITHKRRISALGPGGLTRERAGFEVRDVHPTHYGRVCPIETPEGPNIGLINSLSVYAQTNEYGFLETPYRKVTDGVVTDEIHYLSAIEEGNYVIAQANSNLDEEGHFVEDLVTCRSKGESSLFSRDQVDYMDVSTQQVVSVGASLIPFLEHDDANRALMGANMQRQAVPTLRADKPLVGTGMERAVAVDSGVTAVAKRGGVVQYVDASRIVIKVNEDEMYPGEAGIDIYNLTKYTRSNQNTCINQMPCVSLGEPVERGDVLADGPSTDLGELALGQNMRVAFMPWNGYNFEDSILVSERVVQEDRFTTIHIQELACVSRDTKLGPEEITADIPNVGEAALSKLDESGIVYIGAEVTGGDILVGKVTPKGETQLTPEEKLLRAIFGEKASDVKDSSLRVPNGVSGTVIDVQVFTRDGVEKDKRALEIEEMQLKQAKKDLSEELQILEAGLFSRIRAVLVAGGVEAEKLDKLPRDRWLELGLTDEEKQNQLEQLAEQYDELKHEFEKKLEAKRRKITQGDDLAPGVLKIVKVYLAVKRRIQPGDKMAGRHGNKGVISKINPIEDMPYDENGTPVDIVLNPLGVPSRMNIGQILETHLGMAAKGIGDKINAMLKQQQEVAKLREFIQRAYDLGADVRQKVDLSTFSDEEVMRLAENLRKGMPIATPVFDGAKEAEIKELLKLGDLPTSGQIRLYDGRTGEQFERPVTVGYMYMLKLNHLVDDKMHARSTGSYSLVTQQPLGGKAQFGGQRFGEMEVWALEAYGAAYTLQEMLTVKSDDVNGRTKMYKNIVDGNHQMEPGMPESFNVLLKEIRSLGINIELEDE

Escherichia coli σ^38 subunit (stationary phase and stress response σ factor) (from UniProt P13445 1-330) (natural protein)
Kd [1]: 330 nM
Kd [2]: > 10000 nM
Kd from pausing efficiency in the transcription assay on the '-TG' TEC variant [3]: 525 nM
Kd [4]: 900 nM
